Results: patent US20220213181A1 (Novartis, published 2022)

T1: Mouse ANGPTL4(26-410)-FLAG-His6-Avi (mouse, UniProt Q9Z1P8 24-410, biotin on the C-terminal Avi tag (BirA) where the protein is immobilised)
T1 sequence: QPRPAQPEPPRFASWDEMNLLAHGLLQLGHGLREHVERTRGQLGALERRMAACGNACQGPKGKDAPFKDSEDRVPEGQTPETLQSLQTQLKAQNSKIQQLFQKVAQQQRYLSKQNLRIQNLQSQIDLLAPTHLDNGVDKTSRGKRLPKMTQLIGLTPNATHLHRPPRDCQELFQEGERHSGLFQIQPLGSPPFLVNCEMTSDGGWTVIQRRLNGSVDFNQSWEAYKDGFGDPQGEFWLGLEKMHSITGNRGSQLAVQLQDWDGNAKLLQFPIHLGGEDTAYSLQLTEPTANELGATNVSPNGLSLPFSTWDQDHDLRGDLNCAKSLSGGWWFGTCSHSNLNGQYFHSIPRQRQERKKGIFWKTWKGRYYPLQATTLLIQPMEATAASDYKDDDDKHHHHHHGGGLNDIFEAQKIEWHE

T2: Human ANGPTL4(26-406)-FLAG-His6-Avi (human, UniProt Q9BY76 24-406, biotin on the C-terminal Avi tag (BirA) where the protein is immobilised)
T2 construct: the text calls it 20 amino acids), then QP, ANGPTL4 26-406 and FLAG-His6-Avi; the signal peptide is left out here; also called full length human ANGPTL4; hANGPTL4
T2 sequence: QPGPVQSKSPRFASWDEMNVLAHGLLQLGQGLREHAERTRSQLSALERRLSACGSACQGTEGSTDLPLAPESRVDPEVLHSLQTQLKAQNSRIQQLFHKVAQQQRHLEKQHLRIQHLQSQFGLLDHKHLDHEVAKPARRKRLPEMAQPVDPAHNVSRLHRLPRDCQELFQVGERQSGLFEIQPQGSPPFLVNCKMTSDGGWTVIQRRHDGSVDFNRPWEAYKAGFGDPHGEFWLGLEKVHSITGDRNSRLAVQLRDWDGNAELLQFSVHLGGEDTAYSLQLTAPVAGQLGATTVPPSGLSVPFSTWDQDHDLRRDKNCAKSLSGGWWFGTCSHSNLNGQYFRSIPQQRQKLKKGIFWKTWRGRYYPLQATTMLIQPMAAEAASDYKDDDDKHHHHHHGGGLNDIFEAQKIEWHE

T3: Human ANGPTL4(26-161)-FLAG-His6-Avi (human, biotin on the C-terminal Avi tag (BirA) where the protein is immobilised)
T3 construct: also called human ANGPTL4 N-terminal coiled coil domain; hANGPTL4-CCD
T3 chain: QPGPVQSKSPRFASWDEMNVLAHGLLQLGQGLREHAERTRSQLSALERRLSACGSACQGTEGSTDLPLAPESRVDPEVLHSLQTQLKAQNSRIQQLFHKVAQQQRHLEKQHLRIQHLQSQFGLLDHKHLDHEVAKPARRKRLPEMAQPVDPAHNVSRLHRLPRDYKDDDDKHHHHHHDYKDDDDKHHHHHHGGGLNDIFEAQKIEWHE

T4: Cynomolgus monkey ANGPTL4(26-406)-FLAG-His6-Avi (cynomolgus monkey, biotin on the C-terminal Avi tag (BirA) where the protein is immobilised)
T4 construct: also called Cyno ANGPTL4 (26-406)
T4 chain: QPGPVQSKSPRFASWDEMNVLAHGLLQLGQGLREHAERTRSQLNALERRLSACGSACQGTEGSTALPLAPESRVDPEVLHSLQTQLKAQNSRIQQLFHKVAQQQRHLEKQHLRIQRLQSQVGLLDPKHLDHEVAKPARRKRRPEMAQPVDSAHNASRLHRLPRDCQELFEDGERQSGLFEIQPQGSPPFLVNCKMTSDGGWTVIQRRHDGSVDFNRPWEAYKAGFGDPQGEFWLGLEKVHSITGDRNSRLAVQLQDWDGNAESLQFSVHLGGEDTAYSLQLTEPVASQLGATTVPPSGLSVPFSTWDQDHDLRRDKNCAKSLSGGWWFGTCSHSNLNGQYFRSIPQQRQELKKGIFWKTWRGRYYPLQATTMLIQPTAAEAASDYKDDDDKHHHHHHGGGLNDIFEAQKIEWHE

T5: Cynomolgus monkey ANGPTL4(26-161)-FLAG-His6-Avi (cynomolgus monkey, biotin on the C-terminal Avi tag (BirA) where the protein is immobilised)
T5 construct: also called Cyno ANGPTL4 (26-161)
T5 chain: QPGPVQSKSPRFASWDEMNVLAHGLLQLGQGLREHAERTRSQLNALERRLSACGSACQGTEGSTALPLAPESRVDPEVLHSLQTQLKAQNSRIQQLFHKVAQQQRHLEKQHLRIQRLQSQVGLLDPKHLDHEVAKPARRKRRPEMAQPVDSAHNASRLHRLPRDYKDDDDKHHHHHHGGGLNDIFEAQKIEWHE


Assays:
[1] = biological target: T1, Mouse ANGPTL4(26-410)-FLAG-His6-Avi; experiment: Octet (ForteBio) kinetics, biotinylated antigen on streptavidin sensor, IgG in solution; Octet kinetics, mouse ANGPTL4 on the sensor, antibody up to 25 nM; run 2
[2] = biological target: T2, Human ANGPTL4(26-406)-FLAG-His6-Avi; experiment: Octet (ForteBio) kinetics; average KD of the runs
[3] = biological target: T3, Human ANGPTL4(26-161)-FLAG-His6-Avi; experiment: Octet (ForteBio) kinetics; average KD of the runs
[4] = biological target: T4, Cynomolgus monkey …; experiment: Octet (ForteBio) kinetics; average KD of the runs
[5] = biological target: T5, Cynomolgus monkey …; experiment: Octet (ForteBio) kinetics; average KD of the runs
[6] = biological target: T2, Human ANGPTL4(26-406)-FLAG-His6-Avi; experiment: Octet (ForteBio) kinetics, biotinylated antigen on streptavidin sensor, IgG in solution; slower than the limit of detection (about 5e-6 s^-1)
Method: Dissociation constants (KD) were determined for selected antibodies of the invention by using an Octet (ForteBio) kinetic binding assay. ForteBio 10× Kinetics Buffer (ForteBio, catalog number 18-5032) was diluted 10-fold with DPBS (Life Technologies, catalog number 14190-136), and the resulting solution was added (0.2 ml per well) to a 96-well plate (Greiner, catalog number 65520). Streptavidin sensors (ForteBio, catalog number 18-5020) were immersed in the solution and equilibrated for at least 10 min at room temperature. In a second 96-well plate (Greiner, catalog number 65520), sensors were washed in 1× Kinetics buffer, and then immersed in 200 ul of 25 nM biotinylated human ANGPTL4 or a biotinylated reference protein (for background subtraction) for 1000 sec at […] room temperature. […] The sensors were then transferred to a well containing 200 μl 1× Kinetics buffer, and antibody dissociation was monitored for 1200 seconds. Background-corrected association and dissociation curves were globally fitted by Octet Software (ForteBio) to generate association (kₐ) and dissociation (kd) rate constants, which in turn were used to calculate equilibrium dissociation constants (KD).

Binder | koff [1] [s⁻¹] | kon [1] [M⁻¹ s⁻¹] | Kd [2] [pM] | Kd [3] [pM] | Kd [4] [pM] | Kd [5] [pM] | koff [6] [s⁻¹]
NEG276-LALA (antibody, human IgG1, kappa, L234A L235A) heavy: not shown light: EIVMTQSPATLSVSPGERATLSCKASQDIGSNLNWLQQKPGQAPRRLIYAVSNRGPGIPARFSGSRSGSEYTLTISSLQSEDFAVYYCLQYASSPWTFGQGTKVEIKRTVAAPSVFIFPPSDEQLKSGTASVVCLLNNFYPREAKVQWKVDNALQSGNSQESVTEQDSKDSTYSLSSTLTLSKADYEKHKVYACEVTHQGLSSPVTKSFNRGEC | 0.0018 | 430000 | 13 | 38 | 15 | 56 | –
NEG278 (antibody, human IgG1, kappa, V domains shown, humanized, hIgG1/kappa, parental antibody 19C16) VH: QVQLVQSGAEVKKPGASVKVSCKASAYTFTSSWMQWVRQAPGQGLEWMGEIDPSDNYANYNQKFQGRVTLTVDTSTSTAYMELSSLRSEDTAVYYCASGSYFSNFFDYWGQGTLVTVSS VL: EIVMTQSPATLSVSPGERATLSCKASQDIGSNLNWLQQKPGQAPRRLIYAASVREPGIPARFSGSRSGSEYTLTISSLQSEDFAVYYCLQYASSPWTFGQGTKVEIKR | – | – | – | – | – | – | 6.7e-07
